This is an account of results in patent US20160272683A1 (Novo Nordisk, published 2016).

Numbered stars: 1 amine (or outer) side, 2 acyl side, 3 side chain; on linkers, the order of the positions; unused ones are H or OH. * marks the point of attachment. C20 diacid = O=C(O)CCCCCCCCCCCCCCCCCCC(=O)*; γGlu = O=C(O)[C@H](CCC(=O)[*:2])N[*:1]

The chains are these.
B1: [N-terminal(C20 diacid-gGlu), des1, 4G, 9T, 15Q, 21Q, 23Y, 25P, 30S, 31G, 32T, 33Y]mimylin (peptide)
peptide: {C20 diacid-γGlu}-ASGLSTATLGRLSQELHELQTYPPTETGSGTY-NH2
SMILES: CC(C)C[C@H](NC(=O)CNC(=O)[C@H](CO)NC(=O)[C@H](C)NC(=O)CC[C@H](NC(=O)CCCCCCCCCCCCCCCCCCC(=O)O)C(=O)O)C(=O)N[C@@H](CO)C(=O)N[C@H](C(=O)N[C@@H](C)C(=O)N[C@H](C(=O)N[C@@H](CC(C)C)C(=O)NCC(=O)N[C@@H](CCCNC(=N)N)C(=O)N[C@@H](CC(C)C)C(=O)N[C@@H](CO)C(=O)N[C@@H](CCC(N)=O)C(=O)N[C@@H](CCC(=O)O)C(=O)N[C@@H](CC(C)C)C(=O)N[C@@H](Cc1c[nH]cn1)C(=O)N[C@@H](CCC(=O)O)C(=O)N[C@@H](CC(C)C)C(=O)N[C@@H](CCC(N)=O)C(=O)N[C@H](C(=O)N[C@@H](Cc1ccc(O)cc1)C(=O)N1CCC[C@H]1C(=O)N1CCC[C@H]1C(=O)N[C@H](C(=O)N[C@@H](CCC(=O)O)C(=O)N[C@H](C(=O)NCC(=O)N[C@@H](CO)C(=O)NCC(=O)N[C@H](C(=O)N[C@@H](Cc1ccc(O)cc1)C(N)=O)[C@@H](C)O)[C@@H](C)O)[C@@H](C)O)[C@@H](C)O)[C@@H](C)O)[C@@H](C)O
B2: [N-terminal(C20 diacid-gGlu), des1, 4G, 8L, 9V, 15Q, 21Q, 23Y, 30S, 31Q, 32T, 33Y]mimylin (peptide)
peptide: {C20 diacid-γGlu}-ASGLSTLVLGRLSQELHELQTYPRTETGSQTY-NH2
SMILES: CC(C)C[C@H](NC(=O)CNC(=O)[C@H](CO)NC(=O)[C@H](C)NC(=O)CC[C@H](NC(=O)CCCCCCCCCCCCCCCCCCC(=O)O)C(=O)O)C(=O)N[C@@H](CO)C(=O)N[C@H](C(=O)N[C@@H](CC(C)C)C(=O)N[C@H](C(=O)N[C@@H](CC(C)C)C(=O)NCC(=O)N[C@@H](CCCNC(=N)N)C(=O)N[C@@H](CC(C)C)C(=O)N[C@@H](CO)C(=O)N[C@@H](CCC(N)=O)C(=O)N[C@@H](CCC(=O)O)C(=O)N[C@@H](CC(C)C)C(=O)N[C@@H](Cc1c[nH]cn1)C(=O)N[C@@H](CCC(=O)O)C(=O)N[C@@H](CC(C)C)C(=O)N[C@@H](CCC(N)=O)C(=O)N[C@H](C(=O)N[C@@H](Cc1ccc(O)cc1)C(=O)N1CCC[C@H]1C(=O)N[C@@H](CCCNC(=N)N)C(=O)N[C@H](C(=O)N[C@@H](CCC(=O)O)C(=O)N[C@H](C(=O)NCC(=O)N[C@@H](CO)C(=O)N[C@@H](CCC(N)=O)C(=O)N[C@H](C(=O)N[C@@H](Cc1ccc(O)cc1)C(N)=O)[C@@H](C)O)[C@@H](C)O)[C@@H](C)O)[C@@H](C)O)C(C)C)[C@@H](C)O
B3: [N-terminal(C20 diacid-gGlu), des1, 4G, 9V, 15Q, 21Q, 23Y, 25P, 30S, 31Q, 32T, 33Y]mimylin (peptide)
peptide: {C20 diacid-γGlu}-ASGLSTAVLGRLSQELHELQTYPPTETGSQTY-NH2
SMILES: CC(C)C[C@H](NC(=O)CNC(=O)[C@H](CO)NC(=O)[C@H](C)NC(=O)CC[C@H](NC(=O)CCCCCCCCCCCCCCCCCCC(=O)O)C(=O)O)C(=O)N[C@@H](CO)C(=O)N[C@H](C(=O)N[C@@H](C)C(=O)N[C@H](C(=O)N[C@@H](CC(C)C)C(=O)NCC(=O)N[C@@H](CCCNC(=N)N)C(=O)N[C@@H](CC(C)C)C(=O)N[C@@H](CO)C(=O)N[C@@H](CCC(N)=O)C(=O)N[C@@H](CCC(=O)O)C(=O)N[C@@H](CC(C)C)C(=O)N[C@@H](Cc1c[nH]cn1)C(=O)N[C@@H](CCC(=O)O)C(=O)N[C@@H](CC(C)C)C(=O)N[C@@H](CCC(N)=O)C(=O)N[C@H](C(=O)N[C@@H](Cc1ccc(O)cc1)C(=O)N1CCC[C@H]1C(=O)N1CCC[C@H]1C(=O)N[C@H](C(=O)N[C@@H](CCC(=O)O)C(=O)N[C@H](C(=O)NCC(=O)N[C@@H](CO)C(=O)N[C@@H](CCC(N)=O)C(=O)N[C@H](C(=O)N[C@@H](Cc1ccc(O)cc1)C(N)=O)[C@@H](C)O)[C@@H](C)O)[C@@H](C)O)[C@@H](C)O)C(C)C)[C@@H](C)O
B4: [N-terminal(C20 diacid-gGlu), des1, 4G, 9T, 15Q, 21Q, 23Y, 30S, 31G, 32T, 33Y]mimylin (peptide)
peptide: {C20 diacid-γGlu}-ASGLSTATLGRLSQELHELQTYPRTETGSGTY-NH2
B5: [N-terminal(C20 diacid-gGlu), 2L, 4G, 8L, 9V, 15Q, 21Q, 23Y, 27G, 30S, 31G, 32T, 33Y]mimylin (peptide)
peptide: {C20 diacid-γGlu}-ELSGLSTLVLGRLSQELHELQTYPRTGTGSGTY-NH2
SMILES: CC(C)C[C@H](NC(=O)CNC(=O)[C@H](CO)NC(=O)[C@H](CC(C)C)NC(=O)[C@H](CCC(=O)O)NC(=O)CC[C@H](NC(=O)CCCCCCCCCCCCCCCCCCC(=O)O)C(=O)O)C(=O)N[C@@H](CO)C(=O)N[C@H](C(=O)N[C@@H](CC(C)C)C(=O)N[C@H](C(=O)N[C@@H](CC(C)C)C(=O)NCC(=O)N[C@@H](CCCNC(=N)N)C(=O)N[C@@H](CC(C)C)C(=O)N[C@@H](CO)C(=O)N[C@@H](CCC(N)=O)C(=O)N[C@@H](CCC(=O)O)C(=O)N[C@@H](CC(C)C)C(=O)N[C@@H](Cc1c[nH]cn1)C(=O)N[C@@H](CCC(=O)O)C(=O)N[C@@H](CC(C)C)C(=O)N[C@@H](CCC(N)=O)C(=O)N[C@H](C(=O)N[C@@H](Cc1ccc(O)cc1)C(=O)N1CCC[C@H]1C(=O)N[C@@H](CCCNC(=N)N)C(=O)N[C@H](C(=O)NCC(=O)N[C@H](C(=O)NCC(=O)N[C@@H](CO)C(=O)NCC(=O)N[C@H](C(=O)N[C@@H](Cc1ccc(O)cc1)C(N)=O)[C@@H](C)O)[C@@H](C)O)[C@@H](C)O)[C@@H](C)O)C(C)C)[C@@H](C)O
B6: [N-terminal(C20 diacid-gGlu), des1, 4G, 9V, 15Q, 21Q, 23aQ, 23bT, 23cY, 30S, 31Q, 32T, 33Y]mimylin (peptide)
peptide: {C20 diacid-γGlu}-ASGLSTAVLGRLSQELHELQTLQTYPRTETGSQTY-NH2
SMILES: CC(C)C[C@H](NC(=O)CNC(=O)[C@H](CO)NC(=O)[C@H](C)NC(=O)CC[C@H](NC(=O)CCCCCCCCCCCCCCCCCCC(=O)O)C(=O)O)C(=O)N[C@@H](CO)C(=O)N[C@H](C(=O)N[C@@H](C)C(=O)N[C@H](C(=O)N[C@@H](CC(C)C)C(=O)NCC(=O)N[C@@H](CCCNC(=N)N)C(=O)N[C@@H](CC(C)C)C(=O)N[C@@H](CO)C(=O)N[C@@H](CCC(N)=O)C(=O)N[C@@H](CCC(=O)O)C(=O)N[C@@H](CC(C)C)C(=O)N[C@@H](Cc1c[nH]cn1)C(=O)N[C@@H](CCC(=O)O)C(=O)N[C@@H](CC(C)C)C(=O)N[C@@H](CCC(N)=O)C(=O)N[C@H](C(=O)N[C@@H](CC(C)C)C(=O)N[C@@H](CCC(N)=O)C(=O)N[C@H](C(=O)N[C@@H](Cc1ccc(O)cc1)C(=O)N1CCC[C@H]1C(=O)N[C@@H](CCCNC(=N)N)C(=O)N[C@H](C(=O)N[C@@H](CCC(=O)O)C(=O)N[C@H](C(=O)NCC(=O)N[C@@H](CO)C(=O)N[C@@H](CCC(N)=O)C(=O)N[C@H](C(=O)N[C@@H](Cc1ccc(O)cc1)C(N)=O)[C@@H](C)O)[C@@H](C)O)[C@@H](C)O)[C@@H](C)O)[C@@H](C)O)C(C)C)[C@@H](C)O
B7: [N-terminal(C20 diacid-gGlu), des1, 2L, 4G, 9V, 15Q, 21Q, 23Y, 30S, 31Q, 32T, 33Y]mimylin (peptide)
peptide: {C20 diacid-γGlu}-LSGLSTAVLGRLSQELHELQTYPRTETGSQTY-NH2
SMILES: CC(C)C[C@H](NC(=O)CC[C@H](NC(=O)CCCCCCCCCCCCCCCCCCC(=O)O)C(=O)O)C(=O)N[C@@H](CO)C(=O)NCC(=O)N[C@@H](CC(C)C)C(=O)N[C@@H](CO)C(=O)N[C@H](C(=O)N[C@@H](C)C(=O)N[C@H](C(=O)N[C@@H](CC(C)C)C(=O)NCC(=O)N[C@@H](CCCNC(=N)N)C(=O)N[C@@H](CC(C)C)C(=O)N[C@@H](CO)C(=O)N[C@@H](CCC(N)=O)C(=O)N[C@@H](CCC(=O)O)C(=O)N[C@@H](CC(C)C)C(=O)N[C@@H](Cc1c[nH]cn1)C(=O)N[C@@H](CCC(=O)O)C(=O)N[C@@H](CC(C)C)C(=O)N[C@@H](CCC(N)=O)C(=O)N[C@H](C(=O)N[C@@H](Cc1ccc(O)cc1)C(=O)N1CCC[C@H]1C(=O)N[C@@H](CCCNC(=N)N)C(=O)N[C@H](C(=O)N[C@@H](CCC(=O)O)C(=O)N[C@H](C(=O)NCC(=O)N[C@@H](CO)C(=O)N[C@@H](CCC(N)=O)C(=O)N[C@H](C(=O)N[C@@H](Cc1ccc(O)cc1)C(N)=O)[C@@H](C)O)[C@@H](C)O)[C@@H](C)O)[C@@H](C)O)C(C)C)[C@@H](C)O

The first assay concerns the target T1, human amylin 3(a) receptor (human calcitonin receptor co-expressed with RAMP-3) on BHK570/CRE-luc cells (human, UniProt P30988 25-474; O60896 24-148).
T1 sequence (looked up) 1: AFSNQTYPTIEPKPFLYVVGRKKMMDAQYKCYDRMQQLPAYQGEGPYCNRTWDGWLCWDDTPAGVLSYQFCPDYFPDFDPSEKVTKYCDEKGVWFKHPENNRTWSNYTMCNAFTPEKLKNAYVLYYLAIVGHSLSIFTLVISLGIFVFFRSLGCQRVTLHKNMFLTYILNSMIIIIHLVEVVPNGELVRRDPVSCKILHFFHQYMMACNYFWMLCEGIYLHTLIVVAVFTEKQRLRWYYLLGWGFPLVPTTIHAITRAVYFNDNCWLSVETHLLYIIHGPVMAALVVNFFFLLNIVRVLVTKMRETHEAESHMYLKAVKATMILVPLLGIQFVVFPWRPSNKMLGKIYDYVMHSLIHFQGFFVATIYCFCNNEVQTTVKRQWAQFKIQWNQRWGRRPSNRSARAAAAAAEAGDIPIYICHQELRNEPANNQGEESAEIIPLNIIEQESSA
T1 sequence (looked up) 2: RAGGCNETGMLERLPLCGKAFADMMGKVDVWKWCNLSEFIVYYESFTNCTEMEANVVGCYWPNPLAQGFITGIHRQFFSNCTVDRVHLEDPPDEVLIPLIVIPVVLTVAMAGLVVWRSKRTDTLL
The assay can be described thus: cell-based or functional assay.
As to B1, the “hAmylin-R funct. EC50 (pM), tested with HSA” value (shortened to “hAmylin-R funct. EC50 (pM)”) came to 173 pM.
The same measure, in the same setting: next, B2: 223 pM; B3: 152 pM; B4: 122 pM.
As to B5, the “hAmylin-R funct. EC50 (pM)” value is 565 pM.
For the molecule B6, the “hAmylin-R funct. EC50 (pM)” value was 185 pM.
The same measure, in the same setting: next, B7: 140 pM.

Another assay has as its target T2, human calcitonin receptor on BHK570/CRE-luc cells (human, UniProt P30988 25-474).
T2 sequence (looked up): T1 sequence (looked up) 1
The assay can be described thus: cell-based or functional assay.
Regarding B1, the “hCTR funct. EC50 (pM), tested with HSA” value is 77 pM.
For B2, the “hCTR funct. EC50 (pM), tested with HSA” value came out at 142 pM.
Take B3: the “hCTR funct. EC50 (pM), tested with HSA” value was 72 pM.
As for B4, the “hCTR funct. EC50 (pM), tested with HSA” value came to 92 pM.
Still for that read-out and setting: under B5 stands 852 pM; under B6, 99 pM.
Take B7: the “hCTR funct. EC50 (pM), tested with HSA” value was 73 pM.
